Laboratory results reported in patent publication US20250090700A1 (published 2025).

B1: IgG1 (antibody, V domains shown)
VH: QVQLVQSGAEVKKPGASVKVSCKASGFSFTTYWITWVRQAPGQGLEWIGMIHPSDAETRLSQTFKDKATLTADKSTSTAYMELSSLRSEDTAVYYCARDFDVWGQGTLVTVSS
VL: DVVMTQSPLSLPVTLGQPASISCRSSQNIVHQNGQTYLGWYLQKPGQSPQLLIFRVSNRFSGVPDRFSGSGSGTDFTLKISRVEAEDVGVYYCFQGSHIPRTFGQGTRLEIK
B2: IgG4PE (antibody, V domains shown)
VH: B1 VH
VL: B1 VL

Biological target: synthetic sugar epitope
Assay: Biacore (SPR)

Binder | Kd [nM]
B1 | 3.9
B2 | 3.1
